# Test results as given in PMC2063832.
# System: La protein (Homo sapiens)
# Experiment: immunoprecipitation
substance,measurement,value
EBER1 wild type,binding signal (reference (wild type)),1
